Experimental data from patent US20150203577A1 (Chugai, published 2015).

T1: mouse FcγRII (mouse, UniProt P08101 30-210)
T1 construct: Extracellular domain with C-terminal His tag, made in FreeStyle 293 cells; also called mFcγRII; mFcgRII
T1 sequence: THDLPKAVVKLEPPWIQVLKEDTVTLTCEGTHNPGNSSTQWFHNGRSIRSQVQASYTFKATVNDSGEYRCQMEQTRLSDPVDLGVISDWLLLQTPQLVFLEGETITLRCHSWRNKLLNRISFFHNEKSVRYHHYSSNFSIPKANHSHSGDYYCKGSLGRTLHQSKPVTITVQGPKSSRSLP

T2: mouse FcγRIII (mouse, UniProt P08508 31-215)
T2 construct: Extracellular domain with C-terminal His tag, made in FreeStyle 293 cells; also called mFcγRIII; mFcgRIII
T2 chain: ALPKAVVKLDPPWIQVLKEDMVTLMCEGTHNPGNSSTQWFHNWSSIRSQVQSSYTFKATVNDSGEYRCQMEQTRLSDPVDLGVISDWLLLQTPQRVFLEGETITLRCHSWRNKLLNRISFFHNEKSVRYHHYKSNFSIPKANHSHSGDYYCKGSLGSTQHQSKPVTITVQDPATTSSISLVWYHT


Assays:
[1] = biological target: T1, mouse FcγRII; experiment: SPR (Biacore), antibody captured on Protein L
Experimental: (§1) Each altered antibody was analyzed for its interaction with each Fcγ receptor prepared above using Biacore T100 (GE Healthcare Japan Corp.), Biacore T200 (GE Healthcare Japan Corp.), Biacore A100, or Biacore 4000. The running buffer used was HBS-EP+ (GE Healthcare Japan Corp.). The assay temperature was set to 25° C. The sensor chips used were chips prepared by immobilizing Protein L (ACTIGEN or BioVision) onto Series S Sensor Chip CM5 (GE Healthcare Japan Corp.) or Series S Sensor Chip CM4 (GE Healthcare Japan Corp.) by the amine coupling method.
(§2) In order to calculate the KD value of each altered antibody for FcγR, kinetic analysis was conducted according to the following method: first, the antibody of interest was captured onto any of these chips and allowed to interact with mFcγR diluted with a running buffer. For the obtained sensorgram, the assay results were globally fit into the 1:1 Langmuir binding model using Biacore Evaluation Software to calculate an association rate constant ka (L/mol/s) and a dissociation rate constant kd (1/s). From these values, the dissociation constant KD (mol/L) was calculated.

[2] = biological target: T2, mouse FcγRIII; experiment: SPR (Biacore), antibody captured on Protein L
Experimental: as §1, §2

[3] = biological target: T1, mouse FcγRII; experiment: SPR (Biacore), KD of H237-mIgG1/MRAL-k0 (same run) / KD of variant
Experimental: as §1, §2

[4] = biological target: T2, mouse FcγRIII; experiment: as above
Experimental: as §1, §2

Binder | Kd [1] [nM] | Kd [2] [nM] | relative mFcγRII-binding activity (mIgG1 = 1) [3] [fold] | relative mFcγRIII-binding activity (mIgG1 = 1) [4] [fold]
H237-MB611/MRAL-k0 (antibody, mouse IgG1, kappa, copies: 2 + 2) heavy: QVQLQESGPGLVKPSETLSLTCAVSGHSISHDHAWSWVRQPPGEGLEWIGFISYSGITNYNPSLQGRVTISRDNSKNTLYLQMNSLRAEDTAVYYCARSLARTTAMDYWGEGTLVTVSSAKTTPPSVYPLAPGSAAQTNSMVTLGCLVKGYFPEPVTVTWNSGSLSSGVHTFPAVLQSDLYTLSSSVTVPSSTWPSETVTCNVAHPASSTKVDKKIVPRDCGCKPCICTVPEEDEVFIFPPKPKDVLTITLTPKVTCVVVDISKDDPEVQFSWFVDDVEVHTAQTQPREEQFNSTFRSVSELPIMHQDWLNGKEFKCRVNSAAFPAPIEKTISKTKGRPKAPQVYTIPPPKEQMAKDKVSLTCMITDFFPEDITVEWQWNGQPAENYKNTQPIMDTDGSYFVYSKLNVQKSNWEAGNTFTCSVLHEGLHNHHTEKSLSHSPGK light: not shown | 192 | 3420 | 1.11 | 0.09
H237-MB617/MRAL-k0 (antibody, mouse IgG1, kappa, copies: 2 + 2) heavy: QVQLQESGPGLVKPSETLSLTCAVSGHSISHDHAWSWVRQPPGEGLEWIGFISYSGITNYNPSLQGRVTISRDNSKNTLYLQMNSLRAEDTAVYYCARSLARTTAMDYWGEGTLVTVSSAKTTPPSVYPLAPGSAAQTNSMVTLGCLVKGYFPEPVTVTWNSGSLSSGVHTFPAVLQSDLYTLSSSVTVPSSTWPSETVTCNVAHPASSTKVDKKIVPRDCGCKPCICTVPEESDVDIFPPKPKDVLTITLTPKVTCVVVDISKDDPEVQFSWFVDDVEVHTAQTQPREEQFNSTFRSVSELPIMHQDWLNGKEFKCRVNSAAFPAPIEKTISKTKGRPKAPQVYTIPPPKEQMAKDKVSLTCMITDFFPEDITVEWQWNGQPAENYKNTQPIMDTDGSYFVYSKLNVQKSNWEAGNTFTCSVLHEGLHNHHTEKSLSHSPGK light: not shown | 255 | 2100 | 0.84 | 0.15
H237-MB626/MRAL-k0 (antibody, mouse IgG1, kappa, copies: 2 + 2) heavy: QVQLQESGPGLVKPSETLSLTCAVSGHSISHDHAWSWVRQPPGEGLEWIGFISYSGITNYNPSLQGRVTISRDNSKNTLYLQMNSLRAEDTAVYYCARSLARTTAMDYWGEGTLVTVSSAKTTPPSVYPLAPGSAAQTNSMVTLGCLVKGYFPEPVTVTWNSGSLSSGVHTFPAVLQSDLYTLSSSVTVPSSTWPSETVTCNVAHPASSTKVDKKIVPRDCGCKPCICETYEVELVFIFPPKPKDVLTITLTPKVTCVVVDISKDDPEVQFSWFVDDVEVHTAQTQPREEQFNSTFRSVSELPIMHQDWLNGKEFKCRVNSAAFPAPIEKTISKTKGRPKAPQVYTIPPPKEQMAKDKVSLTCMITDFFPEDITVEWQWNGQPAENYKNTQPIMDTDGSYFVYSKLNVQKSNWEAGNTFTCSVLHEGLHNHHTEKSLSHSPGK light: not shown | 261 | 2370 | 0.89 | 0.14
H237-MB638/MRAL-k0 (antibody, 'T2301' read as T230I; copies: 2 + 2) heavy: QVQLQESGPGLVKPSETLSLTCAVSGHSISHDHAWSWVRQPPGEGLEWIGFISYSGITNYNPSLQGRVTISRDNSKNTLYLQMNSLRAEDTAVYYCARSLARTTAMDYWGEGTLVTVSSAKTTPPSVYPLAPGSAAQTNSMVTLGCLVKGYFPEPVTVTWNSGSLSSGVHTFPAVLQSDLYTLSSSVTVPSSTWPSETVTCNVAHPASSTKVDKKIVPRDCGCKPCICIPAEVENVFIFPPKPKDVLTITLTPKVTCVVVDISKDDPEVQFSWFVDDVEVHTAQTQPREEQFNSTFRSVSELPIMHQDWLNGKEFKCRVNSAAFPAPIEKTISKTKGRPKAPQVYTIPPPKEQMAKDKVSLTCMITDFFPEDITVEWQWNGQPAENYKNTQPIMDTDGSYFVYSKLNVQKSNWEAGNTFTCSVLHEGLHNHHTEKSLSHSPGK light: not shown | 280 | 3380 | 0.83 | 0.1
H237-MB618/MRAL-k0 (antibody, mouse IgG1, kappa, copies: 2 + 2) heavy: QVQLQESGPGLVKPSETLSLTCAVSGHSISHDHAWSWVRQPPGEGLEWIGFISYSGITNYNPSLQGRVTISRDNSKNTLYLQMNSLRAEDTAVYYCARSLARTTAMDYWGEGTLVTVSSAKTTPPSVYPLAPGSAAQTNSMVTLGCLVKGYFPEPVTVTWNSGSLSSGVHTFPAVLQSDLYTLSSSVTVPSSTWPSETVTCNVAHPASSTKVDKKIVPRDCGCKPCICTVPEEDDVFIFPPKPKDVLTITLTPKVTCVVVDISKDDPEVQFSWFVDDVEVHTAQTQPREEQFNSTFRSVSELPIMHQDWLNGKEFKCRVNSAAFPAPIEKTISKTKGRPKAPQVYTIPPPKEQMAKDKVSLTCMITDFFPEDITVEWQWNGQPAENYKNTQPIMDTDGSYFVYSKLNVQKSNWEAGNTFTCSVLHEGLHNHHTEKSLSHSPGK light: not shown | 156 | 2730 | 1.63 | 0.13
H237-MB623/MRAL-k0 (antibody, mouse IgG1, kappa, copies: 2 + 2) heavy: QVQLQESGPGLVKPSETLSLTCAVSGHSISHDHAWSWVRQPPGEGLEWIGFISYSGITNYNPSLQGRVTISRDNSKNTLYLQMNSLRAEDTAVYYCARSLARTTAMDYWGEGTLVTVSSAKTTPPSVYPLAPGSAAQTNSMVTLGCLVKGYFPEPVTVTWNSGSLSSGVHTFPAVLQSDLYTLSSSVTVPSSTWPSETVTCNVAHPASSTKVDKKIVPRDCGCKPCICEAYEVELVFIFPPKPKDVLTITLTPKVTCVVVDISKDDPEVQFSWFVDDVEVHTAQTQPREEQFNSTFRSVSELPIMHQDWLNGKEFKCRVNSAAFPAPIEKTISKTKGRPKAPQVYTIPPPKEQMAKDKVSLTCMITDFFPEDITVEWQWNGQPAENYKNTQPIMDTDGSYFVYSKLNVQKSNWEAGNTFTCSVLHEGLHNHHTEKSLSHSPGK light: not shown | 395 | 3170 | 0.59 | 0.1
H237-MB624/MRAL-k0 (antibody, mouse IgG1, kappa, copies: 2 + 2) heavy: QVQLQESGPGLVKPSETLSLTCAVSGHSISHDHAWSWVRQPPGEGLEWIGFISYSGITNYNPSLQGRVTISRDNSKNTLYLQMNSLRAEDTAVYYCARSLARTTAMDYWGEGTLVTVSSAKTTPPSVYPLAPGSAAQTNSMVTLGCLVKGYFPEPVTVTWNSGSLSSGVHTFPAVLQSDLYTLSSSVTVPSSTWPSETVTCNVAHPASSTKVDKKIVPRDCGCKPCICEDYEVELVFIFPPKPKDVLTITLTPKVTCVVVDISKDDPEVQFSWFVDDVEVHTAQTQPREEQFNSTFRSVSELPIMHQDWLNGKEFKCRVNSAAFPAPIEKTISKTKGRPKAPQVYTIPPPKEQMAKDKVSLTCMITDFFPEDITVEWQWNGQPAENYKNTQPIMDTDGSYFVYSKLNVQKSNWEAGNTFTCSVLHEGLHNHHTEKSLSHSPGK light: not shown | 263 | 2870 | 0.88 | 0.11
H237-MB625/MRAL-k0 (antibody, mouse IgG1, kappa, copies: 2 + 2) heavy: QVQLQESGPGLVKPSETLSLTCAVSGHSISHDHAWSWVRQPPGEGLEWIGFISYSGITNYNPSLQGRVTISRDNSKNTLYLQMNSLRAEDTAVYYCARSLARTTAMDYWGEGTLVTVSSAKTTPPSVYPLAPGSAAQTNSMVTLGCLVKGYFPEPVTVTWNSGSLSSGVHTFPAVLQSDLYTLSSSVTVPSSTWPSETVTCNVAHPASSTKVDKKIVPRDCGCKPCICENYEVELVFIFPPKPKDVLTITLTPKVTCVVVDISKDDPEVQFSWFVDDVEVHTAQTQPREEQFNSTFRSVSELPIMHQDWLNGKEFKCRVNSAAFPAPIEKTISKTKGRPKAPQVYTIPPPKEQMAKDKVSLTCMITDFFPEDITVEWQWNGQPAENYKNTQPIMDTDGSYFVYSKLNVQKSNWEAGNTFTCSVLHEGLHNHHTEKSLSHSPGK light: not shown | 312 | 2310 | 0.74 | 0.14
